# According to publication PMC5024086, “Fine-tuning of amino sugar homeostasis by EIIA^Ntr in Salmonella Typhimurium” (Scientific Reports, 2016):
# B1: GlmS in solution (SEC-MALS) (enzyme, Salmonella Typhimurium, UniProt Q8ZKX1 1-609, looked up)
# chain: MCGIVGAIAQRDVAEILLEGLRRLEYRGYDSAGLAVVDAEGHMTRLRRLGKVQMLAQAAEEHPLHGGTGIAHTRWATHGEPSEANAHPHVSEHIVVVHNGIIENHEPLREALKARGYTFVSETDTEVIAHLVNWELKQGGTLREAVLRAIPQLRGAYGTVIMDTRHPDTLLAARSGSPLVIGLGMGENFIASDQLALLPVTRRFIFLEEGDIAEITRRSVNIFDNTGAEVKRQDIESNLQYDAGDKGIYRHYMQKEIYEQPNAIKNTLTGRISHGQVDLSELGPNADELLSKVEHIQILACGTSYNSGMVSRYWFESLAGIPCDVEIASEFRYRKSAVRRNSLMITLSQSGETADTLAGLRLSKELGYLGSLAICNVPGSSLVRESDLALMTNAGTEIGVASTKAFTTQLTVLLMLVAKLSRLKGLDASIEHDIVHGLQALPSRIEQMLSQDKRIELLAEDFSDKHHALFLGRGDQYPIALEGALKLKEISYIHAEAYAAGELKHGPLALIDADMPVIVVAPNNELLEKLKSNIEEVRARGGQLYVFADQDAGFVSNDNMHIIEMPHVEEVIAPIFYTVPLQLLAYHVALIKGTDVDQPRNLAKSVTVE
# notes: D-glucosamine-6-phosphate synthase (GlmS), Salmonella Typhimurium; 128 kDa dimer by SEC-MALS; it may be the same as m7; also called GlmS dimer
# Legend:
# [1] = target: GlmS in solution (SEC-MALS) (Salmonella Typhimurium) (UniProt Q8ZKX1); assay: SEC-MALS; Superdex 200 10/300 GL, 20 mM Tris-HCl pH 8.0, 300 mM NaCl, 2 mg protein injected, 0.5 ml/min; proteins alone or in combination
# [2] = target: the molecule itself; assay: as above
Molecule,stoichiometry N (EIIA^Ntr per GlmS chain (1:2)) [1],stoichiometry N [2]
EIIA^Ntr in solution (SEC-MALS) (natural protein),0.5,
B1,,2
